Data published in paper PMC7804450.

Target: T1, tuberous sclerosis complex 1 (TSC1), human, subunit of the purified TSC complex (human), Q92574
T1 chain: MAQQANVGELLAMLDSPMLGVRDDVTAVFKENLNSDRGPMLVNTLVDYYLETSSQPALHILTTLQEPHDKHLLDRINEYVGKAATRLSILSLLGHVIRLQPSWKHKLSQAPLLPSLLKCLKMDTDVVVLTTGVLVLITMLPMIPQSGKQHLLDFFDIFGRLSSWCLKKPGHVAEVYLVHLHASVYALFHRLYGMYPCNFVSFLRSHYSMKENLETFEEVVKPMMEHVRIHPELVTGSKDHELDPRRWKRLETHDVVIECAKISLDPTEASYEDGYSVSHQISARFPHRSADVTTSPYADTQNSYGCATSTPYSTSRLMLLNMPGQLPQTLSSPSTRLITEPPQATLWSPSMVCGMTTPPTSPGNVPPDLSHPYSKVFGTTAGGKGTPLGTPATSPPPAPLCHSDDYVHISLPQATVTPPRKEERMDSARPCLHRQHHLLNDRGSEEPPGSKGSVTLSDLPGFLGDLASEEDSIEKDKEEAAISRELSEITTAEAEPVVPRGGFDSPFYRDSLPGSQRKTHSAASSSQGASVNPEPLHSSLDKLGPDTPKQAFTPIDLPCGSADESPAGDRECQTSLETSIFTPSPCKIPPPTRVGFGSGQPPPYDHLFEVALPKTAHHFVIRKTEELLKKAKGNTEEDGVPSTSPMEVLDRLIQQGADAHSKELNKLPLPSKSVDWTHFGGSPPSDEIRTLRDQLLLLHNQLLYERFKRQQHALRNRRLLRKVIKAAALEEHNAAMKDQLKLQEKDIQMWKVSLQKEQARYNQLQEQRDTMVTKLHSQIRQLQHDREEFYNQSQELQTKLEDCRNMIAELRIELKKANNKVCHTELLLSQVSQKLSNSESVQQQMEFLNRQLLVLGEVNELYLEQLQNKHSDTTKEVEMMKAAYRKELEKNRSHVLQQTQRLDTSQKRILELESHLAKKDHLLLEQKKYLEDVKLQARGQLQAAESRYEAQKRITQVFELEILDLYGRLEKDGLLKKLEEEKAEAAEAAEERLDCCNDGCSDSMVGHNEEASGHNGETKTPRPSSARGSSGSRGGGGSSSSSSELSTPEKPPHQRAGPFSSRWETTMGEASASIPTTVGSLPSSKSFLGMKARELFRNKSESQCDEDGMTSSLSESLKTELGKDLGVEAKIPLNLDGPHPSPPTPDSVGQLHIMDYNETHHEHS
Assay: cryo-EM structure; human TSC complex (TSC1, TSC2, TBC1D7) co-expressed in Expi293F, purified, cross-linked by Grafix (glutaraldehyde); single particle reconstruction, 4.4 Å overall, core 3.6 Å, wings 3.9 and 4.1 Å
Settings: remark: other sources report otherwise

B1: tuberous sclerosis complex 1 (TSC1), human, subunit of the purified TSC complex, Q92574 1-1164 (natural protein)
chain: MAQQANVGELLAMLDSPMLGVRDDVTAVFKENLNSDRGPMLVNTLVDYYLETSSQPALHILTTLQEPHDKHLLDRINEYVGKAATRLSILSLLGHVIRLQPSWKHKLSQAPLLPSLLKCLKMDTDVVVLTTGVLVLITMLPMIPQSGKQHLLDFFDIFGRLSSWCLKKPGHVAEVYLVHLHASVYALFHRLYGMYPCNFVSFLRSHYSMKENLETFEEVVKPMMEHVRIHPELVTGSKDHELDPRRWKRLETHDVVIECAKISLDPTEASYEDGYSVSHQISARFPHRSADVTTSPYADTQNSYGCATSTPYSTSRLMLLNMPGQLPQTLSSPSTRLITEPPQATLWSPSMVCGMTTPPTSPGNVPPDLSHPYSKVFGTTAGGKGTPLGTPATSPPPAPLCHSDDYVHISLPQATVTPPRKEERMDSARPCLHRQHHLLNDRGSEEPPGSKGSVTLSDLPGFLGDLASEEDSIEKDKEEAAISRELSEITTAEAEPVVPRGGFDSPFYRDSLPGSQRKTHSAASSSQGASVNPEPLHSSLDKLGPDTPKQAFTPIDLPCGSADESPAGDRECQTSLETSIFTPSPCKIPPPTRVGFGSGQPPPYDHLFEVALPKTAHHFVIRKTEELLKKAKGNTEEDGVPSTSPMEVLDRLIQQGADAHSKELNKLPLPSKSVDWTHFGGSPPSDEIRTLRDQLLLLHNQLLYERFKRQQHALRNRRLLRKVIKAAALEEHNAAMKDQLKLQEKDIQMWKVSLQKEQARYNQLQEQRDTMVTKLHSQIRQLQHDREEFYNQSQELQTKLEDCRNMIAELRIELKKANNKVCHTELLLSQVSQKLSNSESVQQQMEFLNRQLLVLGEVNELYLEQLQNKHSDTTKEVEMMKAAYRKELEKNRSHVLQQTQRLDTSQKRILELESHLAKKDHLLLEQKKYLEDVKLQARGQLQAAESRYEAQKRITQVFELEILDLYGRLEKDGLLKKLEEEKAEAAEAAEERLDCCNDGCSDSMVGHNEEASGHNGETKTPRPSSARGSSGSRGGGGSSSSSSELSTPEKPPHQRAGPFSSRWETTMGEASASIPTTVGSLPSSKSFLGMKARELFRNKSESQCDEDGMTSSLSESLKTELGKDLGVEAKIPLNLDGPHPSPPTPDSVGQLHIMDYNETHHEHS
In the case of B1, the stoichiometry N is reported as 2.
